# Experimental data taken from the supplement of paper PMC9732359.
# ± gives the uncertainty stated by the source.
# Experiment: protein stability index of a GFP-peptide fusion (yeast GPS) (PSI 1-4); higher = more stable; sorted into four equal gates, so the index is relative within each strain
# In short: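 For each peptide, the protein stability index sums the read frequency in every gate after multiplying it by the gate number. Read frequencies came from plasmids that were PCR-amplified from each gate and Illumina-sequenced, with reads assigned to strains by barcodes. The gates were four equal bins of GFP/Cherry fluorescence ratio applied to mid-log yeast in leucine-free medium carrying a pooled library of tiled 17-residue yeast protein peptides fused downstream of GFP on a Cherry-expressing plasmid.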
Sequence,protein stability index (doa10∆),protein stability index (pdr5∆),protein stability index (san1∆),protein stability index (ubr1∆)
DPTLTTTTSFTTSEATA [RPN4],2.85 ± 0.075,2.98 ± 0.067,2.58 ± 0.057,2.92 ± 0.066
ENSFYKKEASKTKWDRK [POP1],2.25 ± 0.063,2.37 ± 0.063,2.3 ± 0.068,2.22 ± 0.048
FMHDPSVFYNIANMVLP [SIR2],2 ± 0.05,2.03 ± 0.04,1.85 ± 0.054,1.7 ± 0.036
VPPTIAQFQYTLDRNTA [RPL8A],1.83 ± 0.06,2.06 ± 0.048,1.64 ± 0.095,1.68 ± 0.044
SYKMNSSAADITMESVH [PRP8],3.32 ± 0.11,3.19 ± 0.08,3.21 ± 0.095,3.17 ± 0.067
KVLEMKNLKDTASVEKA [YIL149C/MLP2],2.95 ± 0.091,3.26 ± 0.093,3.08 ± 0.098,3.21 ± 0.08
ERSDLLPYLSDTCAVSF [YJR042W/NUP85],2.31 ± 0.099,2.46 ± 0.06,2.59 ± 0.076,2.45 ± 0.041
AKSDETKQASSFSFLNR [YLR335W/NUP2],3.35 ± 0.069,3.39 ± 0.099,3.26 ± 0.044,3.31 ± 0.05
DDDQIESLKKSPIFEVL [ARP9],3.16 ± 0.064,3.15 ± 0.046,3.06 ± 0.033,3.2 ± 0.04
DEADKMIDLGFEDQVTN [PRP28],3.16 ± 0.098,3.34 ± 0.11,3.16 ± 0.11,3.1 ± 0.061
AVDNCAICRNHIMEPCI [HRT1],2.12 ± 0.071,2.79 ± 0.09,2.02 ± 0.086,2.2 ± 0.07
NFYRPLLRSVLVLLELV [YML103C/NUP188],1.23 ± 0.066,1.21 ± 0.087,1.18 ± 0.12,1.06 ± 0.074
RHLPMYTEFIDSFIEKI [ITC1],2.4 ± 0.097,2.69 ± 0.075,2.85 ± 0.11,3 ± 0.066
SLQRSKSSFVKESAVIS [SMC1],2.04 ± 0.11,2.27 ± 0.047,2.17 ± 0.067,2.29 ± 0.039
VFGTIIPKISDYIEFNI [YJL039C/NUP192],2.05 ± 0.17,1.68 ± 0.22,,1.61 ± 0.26
ANVLDPSLRKLIESGIG [BRR2],1.87 ± 0.064,2.38 ± 0.071,2.47 ± 0.095,2.56 ± 0.045
RSLLQEAIETCKNFEKT [GAL11],,3.14 ± 0.15,2.59 ± 0.19,3.09 ± 0.081
NVRVGQAVETVGQAGRP [RPN1],2.4 ± 0.11,3.14 ± 0.092,3.19 ± 0.072,3.02 ± 0.1
SVILSVISMFVLPIFTT [YML031W/NDC1],1.29 ± 0.045,1.5 ± 0.059,1.3 ± 0.092,1.93 ± 0.043
TADKIRIHAKNFEAALF [GAL11],2.13 ± 0.068,2.05 ± 0.065,1.51 ± 0.11,2.29 ± 0.055
KTPNRSSTPKFTKKPVT [SIR4],2.77 ± 0.082,2.81 ± 0.082,2.91 ± 0.056,2.94 ± 0.054
RVNGSEFVHKYLGEGPR [RPT3],2.45 ± 0.057,2.88 ± 0.063,2.79 ± 0.056,3 ± 0.061
RNVEQKLNELDELILEA [NNF1],3.3 ± 0.062,3.29 ± 0.059,3.22 ± 0.039,3.4 ± 0.046
VVIDAFRLIDTGALINN [RPN11],1.27 ± 0.16,1.78 ± 0.17,,1.11 ± 0.098
RVASDTVHEMEEELKKL [SMC4],3.37 ± 0.21,3.33 ± 0.18,3.29 ± 0.12,3.63 ± 0.19

Sequence,protein stability index (doa10∆),protein stability index (pdr5∆),protein stability index (san1∆),protein stability index (ubr1∆)
IKWENAFVSVYSKNNPN [PRP8],2.11 ± 0.057,2.77 ± 0.05,3.07 ± 0.053,2.61 ± 0.031
DKKSCSVDDVLSALDHI [DPB4],3.29 ± 0.086,3.23 ± 0.089,3.31 ± 0.054,3.22 ± 0.044
VHRDDPALVGKLRGDLR [SNF6],3.36 ± 0.083,3.2 ± 0.088,2.7 ± 0.092,2.88 ± 0.071
NVGTNTYRLGEWSKISV [POP1],1.97 ± 0.25,2.34 ± 0.12,2.69 ± 0.097,3.17 ± 0.12
SLSKISQAFDIVAALPI [RPP1],3.18 ± 0.12,3.46 ± 0.15,2.97 ± 0.13,
PGGILRAQHVKKLATRP [RPL34A],3.04 ± 0.24,3.39 ± 0.21,3.37 ± 0.16,3.02 ± 0.14
MYPSPTGVMIGIDLAYN [PRP8],2.11 ± 0.074,2.1 ± 0.07,1.97 ± 0.081,2.07 ± 0.048
VHKLRHYLVNLTSPAFG [GRR1],1.24 ± 0.04,1.38 ± 0.035,1.34 ± 0.077,1.21 ± 0.031
LQNSERDVELSSDELKV [SMC4],2.84 ± 0.11,3.12 ± 0.088,2.73 ± 0.066,3.04 ± 0.12
IISTAIADSTHVKRITK [ECM29],2.94 ± 0.1,2.95 ± 0.092,2.6 ± 0.1,3.13 ± 0.078
KVGEDIAKATKEFKGIK [RPL12A],3.07 ± 0.16,3.22 ± 0.14,3.25 ± 0.15,3.17 ± 0.15
STVAKFLARVIKEKFDE [IRR1],2.86 ± 0.1,2.33 ± 0.082,3.36 ± 0.22,2.16 ± 0.09
PKKALKVKAGVRSANED [RRP43],2.84 ± 0.1,2.35 ± 0.088,2.81 ± 0.069,2.41 ± 0.051
SARNYDKFKLNENDLKT [SMC1],2.55 ± 0.093,2.46 ± 0.088,2.35 ± 0.22,2.53 ± 0.063
MEKKKSSSLSLESFMKS [SNM1],1.84 ± 0.04,1.91 ± 0.045,2.62 ± 0.06,2.04 ± 0.04
NKLTILGRDYPIEVDEE [IRR1],2.28 ± 0.1,2.56 ± 0.12,2.38 ± 0.11,2.64 ± 0.066
QCIVYPNCLFILKLLNG [SOH1],1.3 ± 0.062,1.51 ± 0.061,1.27 ± 0.14,1.29 ± 0.047
IHYSWSFILYYRRALQS [YML103C/NUP188],1.48 ± 0.064,1.09 ± 0.042,1.26 ± 0.11,1.12 ± 0.082
QQSTDADEDDEDAKYVI [RPT1],,3.56 ± 0.27,,3.8 ± 0.14
MHSYFIFKDLVTVFLFM [COB],1.47 ± 0.04,1.32 ± 0.037,1.36 ± 0.056,1.34 ± 0.025
IRNVLVTVDQYVNVAIS [SSN2],1.21 ± 0.044,1.25 ± 0.058,1.29 ± 0.089,1.39 ± 0.058
TALEHKVVNGNSADAAY [FAS2],2.84 ± 0.08,3.09 ± 0.088,3.05 ± 0.063,3.13 ± 0.06
PEVSMIRDIREKELKIF [RPB2],3.13 ± 0.15,2.41 ± 0.084,3.38 ± 0.075,2.69 ± 0.13
LGLLLPIAASTDLPIET [RPN1],1.67 ± 0.049,2 ± 0.065,1.79 ± 0.076,2.17 ± 0.055
AFQLADGIHYILNHIGQ [PRP8],2.71 ± 0.14,2.97 ± 0.16,2.71 ± 0.24,2.65 ± 0.14

Sequence,protein stability index (doa10∆),protein stability index (pdr5∆),protein stability index (san1∆),protein stability index (ubr1∆)
LCHPKKEKYGLAVSTIL [SMC1],2.29 ± 0.063,2.31 ± 0.063,2.23 ± 0.091,2.15 ± 0.048
ATGISGSVSEETELFEP [ECM29],3.22 ± 0.083,3.16 ± 0.054,3 ± 0.08,3.04 ± 0.067
NPSEFTPNMVNSEISNL [SSN2],2.66 ± 0.08,2.5 ± 0.1,2.58 ± 0.08,2.91 ± 0.062
AGVVQDIGSDPTLPRSD [RPB9],2.83 ± 0.078,3.2 ± 0.093,2.9 ± 0.061,2.94 ± 0.047
FKKSKIDHINEESWEKV [SCL1],2.78 ± 0.062,3.05 ± 0.067,2.84 ± 0.049,2.69 ± 0.039
NPSYPGMMSTTGTARLN [YJL039C/NUP192],2.97 ± 0.097,3.1 ± 0.053,3.13 ± 0.077,3.24 ± 0.076
SAHQSPIMQTQMPLNSN [SNF2],2.94 ± 0.11,2.37 ± 0.091,2.54 ± 0.075,2.17 ± 0.053
VMYNGHTGKKLMAQIFF [RPB2],,2.31 ± 0.16,3.08 ± 0.14,1.27 ± 0.045
SRLKALNLQFKAKVDDL [YLR335W/NUP2],3.12 ± 0.075,3.2 ± 0.091,3.05 ± 0.1,3.11 ± 0.069
DVVGTLSRNGKPVMEVT [FAS1],2.62 ± 0.13,2.81 ± 0.13,2.65 ± 0.12,2.63 ± 0.08
TQRIMTNVIAFAFWNLL [YLR018C/POM34],1.81 ± 0.069,2.13 ± 0.058,1.74 ± 0.16,1.58 ± 0.027
VSADDFVEEQNVYVLPK [PRP8],3.44 ± 0.099,3.18 ± 0.11,3.07 ± 0.12,3.32 ± 0.083
NQILMSVNFFVSLLKKN [RPL1A],1.84 ± 0.052,2.35 ± 0.046,2.15 ± 0.075,2.39 ± 0.04
PDVLLSRVINVVRAASS [RRP6],1.26 ± 0.081,1.57 ± 0.066,1.44 ± 0.12,2.17 ± 0.13
LTTFANQVMMDRKIQGW [ARP7],2.69 ± 0.081,2.62 ± 0.059,2.45 ± 0.076,2.65 ± 0.049
DSESDSDSETNHKSKDN [SKP1],2.75 ± 0.053,3.04 ± 0.051,3 ± 0.039,3.1 ± 0.044
KASELKLALGIALEGYR [RPN2],2.62 ± 0.15,2.28 ± 0.18,,2.56 ± 0.097
AYSSRFQTPFRRRREGK [RPL5],2.9 ± 0.078,2.75 ± 0.068,2.58 ± 0.082,3.04 ± 0.064
VLPAATKKKSKFMTNST [ARP9],2.74 ± 0.055,2.78 ± 0.046,2.71 ± 0.047,2.96 ± 0.039
TDENTPSADGADKKDDS [ITC1],3.04 ± 0.11,3.11 ± 0.062,3.36 ± 0.064,2.98 ± 0.061
VPLIKVADAKQLGEWAG [RPS12],3.17 ± 0.21,3.49 ± 0.23,,3.17 ± 0.12
AVKTAETGYMSRRLMKS [RPO31],2.33 ± 0.13,,2.52 ± 0.25,
SVSFKVFLLLQAYFSRL [BRR2],1.39 ± 0.044,1.47 ± 0.063,1.22 ± 0.088,1.42 ± 0.051
DTKSVVGLVMFSQFWYW [RPN2],2.35 ± 0.06,2.3 ± 0.062,2.61 ± 0.097,2.52 ± 0.04
